B1: BSPSMA/CD3-004 (bispecific antibody)
chain 1: QVQLVESGGGVVQPGRSLRLSCAASGFTFSSYGMHWVRQAPGKGLEWVAVISYAGNNKYYADSVKGRFTVSRDNSKKTLYLQMNSLRSEDTAVYYCAKDSYYDFLTDPDVLDIWGQGTMVTVSS
chain 2: EVQLVESGGGLVQPGRSLRLSCAASGFTFDDYSMHWVRQAPGKGLEWVSGISWNSGSIGYADSVKGRFTISRDNAKNSLYLQMNSLRAEDTALYYCAKDGSGYGKFYYYGMDVWGQGTTVTVSS
chain 3: DIQMTQSPSSLSASVGDSVTITCRASQSINNYLNWYQQKPGKAPKLLIYTASSLLSGVPSRFSGSGSGTDFTLTISGLHPEDFATYFCQQSFSTPPITFGQGTRLDIK
B2: BSPSMA/CD3-400 (bispecific antibody)
chain 1: B1 chain 1
chain 2: B1 chain 2 with S33A
chain 3: B1 chain 3
B3: BSPSMA/CD3-200 (bispecific antibody)
chain 1: B1 chain 1
chain 2: B1 chain 2 with S33A, K105Y
chain 3: B1 chain 3
B4: BSPSMA/CD3-300 (bispecific antibody)
chain 1: B1 chain 1
chain 2: B1 chain 2 with K105Y
chain 3: B1 chain 3
B5: BSPSMA/CD3-1800 (bispecific antibody)
chain 1: B1 chain 1
chain 2: B1 chain 2 with M111L
chain 3: B1 chain 3
B6: BSMUC16/CD3-001 (bispecific antibody)
chain 1: QVQLVESGGGLVKPGGSLRLSCAASGFTFSNYYMSWVRQAPGKGLEWISYISGRGSTIFYADSVKGRITISRDNAKNSLFLQMNSLRAEDTAVYFCVKDRGGYSPYWGQGTLVTVSS
chain 2: B1 chain 2 with I58K, D99Y, Y108H, M111L
chain 3: not shown
B7: BSMUC16/CD3-002 (bispecific antibody)
chain 1: B6 chain 1
chain 2: B1 chain 2
chain 3: not shown
B8: BSPSMA/CD3-1900 (bispecific antibody)
chain 1: B1 chain 1
chain 2: B1 chain 2 with Y108H
chain 3: B1 chain 3
B9: BSPSMA/CD3-800 (bispecific antibody)
chain 1: B1 chain 1
chain 2: B1 chain 2 with D99Y, Y108H, M111L
chain 3: B1 chain 3
B10: BSPSMA/CD3-1200 (bispecific antibody)
chain 1: B1 chain 1
chain 2: B1 chain 2 with Y108H, M111L
chain 3: B1 chain 3
B11: BSPSMA/CD3-1600 (bispecific antibody)
chain 1: B1 chain 1
chain 2: B1 chain 2 with I58K, Y108H
chain 3: B1 chain 3
B12: BSPSMA/CD3-2100 (bispecific antibody)
chain 1: B1 chain 1
chain 2: B1 chain 2 with I58K
chain 3: B1 chain 3
B13: BSPSMA/CD3-1000 (bispecific antibody)
chain 1: B1 chain 1
chain 2: B1 chain 2 with I58K, D99Y, M111L
chain 3: B1 chain 3
B14: BSPSMA/CD3-1400 (bispecific antibody)
chain 1: B1 chain 1
chain 2: B1 chain 2 with D99Y, Y108H
chain 3: B1 chain 3
B15: BSPSMA/CD3-1100 (bispecific antibody)
chain 1: B1 chain 1
chain 2: B1 chain 2 with I58K, D99Y, Y108H
chain 3: B1 chain 3
B16: BSPSMA/CD3-1500 (bispecific antibody)
chain 1: B1 chain 1
chain 2: B1 chain 2 with I58K, M111L
chain 3: B1 chain 3
B17: BSPSMA/CD3-1300 (bispecific antibody)
chain 1: B1 chain 1
chain 2: B1 chain 2 with D99Y, M111L
chain 3: B1 chain 3
B18: BSPSMA/CD3-1700 (bispecific antibody)
chain 1: B1 chain 1
chain 2: B1 chain 2 with I58K, D99Y
chain 3: B1 chain 3
B19: BSPSMA/CD3-900 (bispecific antibody)
chain 1: B1 chain 1
chain 2: B1 chain 2 with I58K, Y108H, M111L
chain 3: B1 chain 3
B20: BSPSMA/CD3-005 (bispecific antibody)
chain 1: B1 chain 1
chain 2: B1 chain 2 with D99Y
chain 3: B1 chain 3

Changes are numbered by the printed parent chain.

T2 sequence (P07766 23-207 limits assumed, chain 1 of 2): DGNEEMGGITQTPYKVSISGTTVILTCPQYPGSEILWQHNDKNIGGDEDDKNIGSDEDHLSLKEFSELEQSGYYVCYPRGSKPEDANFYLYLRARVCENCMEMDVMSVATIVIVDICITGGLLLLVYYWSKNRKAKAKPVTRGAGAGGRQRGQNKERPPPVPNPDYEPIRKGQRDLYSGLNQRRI
T2 sequence (P04234 22-171 limits assumed, chain 2 of 2): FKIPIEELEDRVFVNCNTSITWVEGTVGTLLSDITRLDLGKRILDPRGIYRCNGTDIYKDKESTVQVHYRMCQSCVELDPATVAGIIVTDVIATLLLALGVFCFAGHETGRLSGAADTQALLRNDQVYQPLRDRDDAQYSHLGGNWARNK

For one assay, the target named is T1, soluble heterodimeric hCD3ε/δ.mFc protein (human).
T1 construct: also called soluble human CD3; human CD3 heterodimeric protein
T1 sequence (P07766 23-126, stated change not applied, chain 1 of 2): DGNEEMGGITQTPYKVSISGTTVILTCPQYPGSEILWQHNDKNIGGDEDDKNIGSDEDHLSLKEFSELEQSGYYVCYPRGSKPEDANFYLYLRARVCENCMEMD
T1 sequence (P04234 22-105, stated change not applied, chain 2 of 2, further chain): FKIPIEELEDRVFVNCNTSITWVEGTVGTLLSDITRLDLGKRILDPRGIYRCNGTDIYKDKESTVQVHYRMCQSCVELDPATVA
As to the kind of experiment: SPR 37 C, antigen-capture format.
As usually defined, the Kd is the equilibrium constant for the complex coming apart. Read a high Kd as weaker binding. B1 had a Kd of over 500 nM. In turn, B2 registered a Kd of over 500 nM. As to B3, the Kd is over 500 nM. B4 displayed a dissociation constant Kd of over 500 nM. Still for that read-out and setting: with B5 the figure was over 500 nM.

The next assay deals with human MUC16 on OVCAR3 cells (human). As to the kind of experiment: cell-based or functional assay.
As to B6, the “OVCAR3 cell depletion EC50” value was 0.0224 nM. Still for that read-out and setting: with B7 the figure was 0.0306 nM.

The next assay has as its target T2, human CD3 (cell surface-expressed) (human, UniProt P07766 23-207; P04234 22-171). Briefly: cell-based or functional assay.
On to B6, for which the “T cell activation EC50” value turned out to be 0.00588 nM. For the molecule B7, the “T cell activation EC50” value worked out at 0.0101 nM.

A further assay addresses T3, human MUC16 on OVCAR3 cells (human).
T3 construct: Endogenous MUC16 of the OVCAR3 cell line; also called Mucin 16
As to the kind of experiment: FACS, OVCAR3 (MUC16+) cells. A general note: Flow cytometry measures light scatter and fluorescence of single cells or particles in a stream.
The EC50 is the concentration that produces a half-maximal response. B6 yielded an EC50 of 1.2 nM. Molecule B7 registered a 50% effective concentration (EC50) of 2.69 nM.

In another assay the target is T2, human CD3 (cell surface-expressed). As to the kind of experiment: FACS, Jurkat cells.
The molecule B6 had an EC50 of 3.21 nM.

In another assay the target is T1, soluble heterodimeric hCD3ε/δ.mFc …. Briefly: SPR 37 C, antigen-capture format. The source holds these as a separate data set.
The molecule B8 returned a T½ of 2.3 min. Take B9: the T½ stood at 10 min. With B10, the T½ came out at 4.7 min. B11 had a T½ of 4.7 min. Molecule B12 showed a T½ of 4.9 min. Same read-out and setting: with B13 the figure was 1.8 min; with B14, 3.5 min. In turn, B15 displayed a T½ of 11.3 min.

Regarding B16, the T½ amounted to 1.9 min. Molecule B17 returned a T½ of 4.7 min.

Take B18: the T½ amounted to 3.8 min. In turn, B19 showed a T½ of 2.3 min. B20 gave a T½ of 2 min.

Values taken from US20210253701A1 (Regeneron, published 2021).
